Measurements published in patent US20160136299A1 (published 2016).
Where two headings read alike, the source gives them in different places.

B1: A114N (antibody)
heavy: not shown
light: DIVMTQTPLSLSVTPGQPASISCKSSQSLLYSNGKTYLNWLLQKPGQSPQRLIYLVSKLDSGVPDRFSGSGSGTDFTLKISRVEAEDVGVYYCVQGTHLHTFGQGTRLEIKRTVAAPSVFIFPPSDEQLKSGTASVVCLLNNFYPREAKVQWKVDNALQSGNSQESVTEQDSKDSTYSLSSTLTLSKADYEKHKVYACEVTHQGLSSPVTKSFNRGEC
modifications: additional N-linked glycan at N114 (Kabat)
B2: S298N/Y300S (antibody)
heavy: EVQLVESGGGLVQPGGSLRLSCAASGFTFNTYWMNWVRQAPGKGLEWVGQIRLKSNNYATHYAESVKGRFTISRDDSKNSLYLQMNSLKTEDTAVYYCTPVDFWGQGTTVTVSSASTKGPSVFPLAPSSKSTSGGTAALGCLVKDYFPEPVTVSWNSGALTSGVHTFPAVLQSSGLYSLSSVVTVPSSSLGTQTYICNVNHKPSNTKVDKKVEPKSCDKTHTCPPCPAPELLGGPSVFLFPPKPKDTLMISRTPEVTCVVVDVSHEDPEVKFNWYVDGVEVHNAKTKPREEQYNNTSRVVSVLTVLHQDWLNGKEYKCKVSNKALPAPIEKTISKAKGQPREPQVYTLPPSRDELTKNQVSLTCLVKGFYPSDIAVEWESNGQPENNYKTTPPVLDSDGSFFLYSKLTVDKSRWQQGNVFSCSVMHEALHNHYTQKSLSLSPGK
light: B1 light
B3: S440N (antibody)
heavy: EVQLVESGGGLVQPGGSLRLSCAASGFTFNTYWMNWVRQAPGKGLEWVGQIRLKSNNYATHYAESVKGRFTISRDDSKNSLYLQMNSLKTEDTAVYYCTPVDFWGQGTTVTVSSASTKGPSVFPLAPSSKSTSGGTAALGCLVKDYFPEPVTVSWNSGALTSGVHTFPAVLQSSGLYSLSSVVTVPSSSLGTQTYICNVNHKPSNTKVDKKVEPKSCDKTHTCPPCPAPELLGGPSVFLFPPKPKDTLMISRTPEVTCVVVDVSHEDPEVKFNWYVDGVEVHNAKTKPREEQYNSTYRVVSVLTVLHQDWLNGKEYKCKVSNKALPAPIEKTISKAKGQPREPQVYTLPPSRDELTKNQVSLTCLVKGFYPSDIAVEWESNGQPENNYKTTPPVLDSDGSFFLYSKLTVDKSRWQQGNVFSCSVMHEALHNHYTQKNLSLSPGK
light: B1 light
B4: WT 2C3 (antibody)
heavy: not shown
light: B1 light
B5: Y436S (antibody)
heavy: not shown
light: B1 light
B6: NGT (antibody)
heavy: not shown
light: B1 light
B7: Y436T (antibody)
heavy: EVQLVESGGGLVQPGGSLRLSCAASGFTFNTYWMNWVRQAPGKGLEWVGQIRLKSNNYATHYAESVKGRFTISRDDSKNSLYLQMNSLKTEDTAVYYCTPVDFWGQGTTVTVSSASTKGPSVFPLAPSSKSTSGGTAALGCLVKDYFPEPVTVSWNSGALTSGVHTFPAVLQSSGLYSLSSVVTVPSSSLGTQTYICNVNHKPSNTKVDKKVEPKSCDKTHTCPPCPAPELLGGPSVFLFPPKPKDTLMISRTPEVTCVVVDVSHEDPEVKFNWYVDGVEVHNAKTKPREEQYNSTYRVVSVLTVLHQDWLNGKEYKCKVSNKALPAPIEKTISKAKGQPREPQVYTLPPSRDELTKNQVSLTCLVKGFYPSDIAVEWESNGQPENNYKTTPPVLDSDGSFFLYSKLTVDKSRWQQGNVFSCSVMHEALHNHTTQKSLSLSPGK
light: B1 light
B8: S442N (antibody)
heavy: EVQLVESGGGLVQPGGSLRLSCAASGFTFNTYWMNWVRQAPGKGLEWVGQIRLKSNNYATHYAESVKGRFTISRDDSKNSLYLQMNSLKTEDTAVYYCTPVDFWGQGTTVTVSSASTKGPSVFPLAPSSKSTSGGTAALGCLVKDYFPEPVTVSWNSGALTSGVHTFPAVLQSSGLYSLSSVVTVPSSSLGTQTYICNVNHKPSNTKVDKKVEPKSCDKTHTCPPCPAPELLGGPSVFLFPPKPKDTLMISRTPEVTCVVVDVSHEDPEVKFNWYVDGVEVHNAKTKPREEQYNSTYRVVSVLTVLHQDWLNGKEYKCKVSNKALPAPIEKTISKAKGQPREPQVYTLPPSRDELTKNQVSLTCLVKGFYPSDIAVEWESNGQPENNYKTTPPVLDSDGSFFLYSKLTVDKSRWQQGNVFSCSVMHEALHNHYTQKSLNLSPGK
light: B1 light
B9: ASGPR receptor subunit H1 (receptor)
chain: QNSQLQEELRGLRETFSNFTASTEAQVKGLSTQGGNVGRKMKSLESQLEKQQKDLSEDHSSLLLHVKQFVSDLRSLSCQMAALQGNGSERTCCPVNWVEHERSCYWFSRSGKAWADADNYCRLEDAHLVVVTSWEEQKFVQHHIGPVNTWMGLHDQNGPWKWVDGTDYETGFKNWRPEQPDDWYGHGLGGGEDCAHFTDDGRWNDDVCQRPYRWVCETELDKASQEPPLL

Experiments:
CD-52 peptide 741 [1] = experiment: SPR
CD-52 peptide 741 [2] = experiment: SPR; remark: listed apart in the source
Control enzyme (S4) = experiment: SPR
[3] = biological target: SAM conjugate (~1.6 GalNAc) (S10); experiment: SPR; ~1.6 GalNAc
[4] = biological target: SAM conjugate (~0.8 GalNAc) (S9); experiment: SPR; ~0.8 GalNAc
[5] = biological target: SAM conjugate (~8 gp) (S5); experiment: SPR; trivalent galactose glycopeptide conjugate

Binder	Kd (CD-52 peptide 741 [2])	other results
B1		Kd (CD-52 peptide 741 [1]): 2.4 nM
B2	1.8 nM	
B3	1.84 nM	
B4	1.75 nM	Kd (CD-52 peptide 741 [1]): 2.1 nM
B5	1.73 nM	
B6	1.35 nM	
B7	1.95 nM	
B8	1.85 nM	
B9		koff (Control enzyme (S4)): 0.0515 s⁻¹; koff [3]: 0.000296 s⁻¹; koff [4]: 0.00107 s⁻¹; koff [5]: 0.0387 s⁻¹
